Results on 12 molecules are retold here after publication PMC7036143 (Molecular cell, 2020).

First the molecules themselves.
B3: P. aeruginosa ATCC27853 HORMA2 (purified in complexes) (natural protein)
chain: MSTVATYSYTHSVTYVTDNILKSLKDIILLSGLDPEHFADRWESNTRAIKTWLGTGDLRKVILEIYNPATDKLVTRWDIDIVYGWSDGDGSFWTDTEQLKYAIKKAGLLPSQAKYKLMLDTKPGRPDVEGWSKGSYRSTDGMVKQSLGSTVEHSGLAGQAGYWRQR
B4: E. coli MS115-1 Trip13 E159Q (purified) (enzyme)
chain: MNVKPSLDELFERRINFPDFEPQERLARLVGLDEHKDRLSKILGLLVNPYGIQEWAKKYHPDARAAVDTVLRRPPLVVLAGDVGSGKTELAETIGDAVARQEDIDITLYPLSLATRGQGRVGEMTQLVSAAFDYTIEAADKLKNTNGKARGAVLLLIDQADALAQSRENAQMHHEDRAGVNAFIRGIDRIANQKLPAAVLMCTNRLKALDPAVQRRAAEILTFSRPNDEQRHYLLHSKLTGLGLNSTAVEELVRLTGPRDPNSPGFTFSDITQRLIPSIILAAYPYNAVSVHSALQVVNKMTPTPAFIDRQ

The target of data set [1] is E. coli MS115-1 CdnC (purified, in complexes with HORMA) (E. coli MS115-1) (UniProt D7Y2H2). Briefly: SEC.
The target is the same in data set [2]. Briefly: SEC. The source holds these as a separate data set.
The target in data set [3] is T1, Ec CdnC:HORMA:Trip13^EQ (Escherichia coli, UniProt D7Y2H4, E159Q).
T1 sequence (D7Y2H4 1-311 E159Q): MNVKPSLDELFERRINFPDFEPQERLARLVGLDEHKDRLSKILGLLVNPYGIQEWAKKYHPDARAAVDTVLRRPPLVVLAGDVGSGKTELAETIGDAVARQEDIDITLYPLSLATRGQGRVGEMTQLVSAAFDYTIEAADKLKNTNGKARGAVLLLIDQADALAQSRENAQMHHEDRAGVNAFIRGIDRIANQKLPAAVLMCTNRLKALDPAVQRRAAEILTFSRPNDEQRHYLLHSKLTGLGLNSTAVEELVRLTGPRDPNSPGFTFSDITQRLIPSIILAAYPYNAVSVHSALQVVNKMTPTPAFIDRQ
T1 sequence (D7Y2H2 1-321 partner): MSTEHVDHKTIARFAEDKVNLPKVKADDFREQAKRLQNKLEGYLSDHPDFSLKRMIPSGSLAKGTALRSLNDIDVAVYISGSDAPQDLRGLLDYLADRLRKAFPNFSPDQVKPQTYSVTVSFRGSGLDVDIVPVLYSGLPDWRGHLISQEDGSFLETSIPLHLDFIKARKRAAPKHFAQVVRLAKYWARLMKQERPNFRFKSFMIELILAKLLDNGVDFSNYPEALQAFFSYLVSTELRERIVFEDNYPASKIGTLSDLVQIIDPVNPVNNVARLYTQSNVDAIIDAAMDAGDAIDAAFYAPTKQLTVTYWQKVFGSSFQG
T1 sequence (D7Y2H3 1-172 partner): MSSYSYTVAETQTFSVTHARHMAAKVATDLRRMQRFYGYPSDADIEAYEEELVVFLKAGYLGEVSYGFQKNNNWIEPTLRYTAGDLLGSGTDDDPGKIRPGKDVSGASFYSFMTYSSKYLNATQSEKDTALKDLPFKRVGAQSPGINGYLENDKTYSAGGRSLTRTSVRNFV
Briefly: crystal structure, […] Å. Format: binding. The settings on record: four of six Trip13 subunits (A-D); 1 mM ATP, 5 mM MgCl2.

Data set [4] concerns the target T2, Ec CdnC (Escherichia coli, UniProt D7Y2H2).
T2 sequence (D7Y2H2 1-321): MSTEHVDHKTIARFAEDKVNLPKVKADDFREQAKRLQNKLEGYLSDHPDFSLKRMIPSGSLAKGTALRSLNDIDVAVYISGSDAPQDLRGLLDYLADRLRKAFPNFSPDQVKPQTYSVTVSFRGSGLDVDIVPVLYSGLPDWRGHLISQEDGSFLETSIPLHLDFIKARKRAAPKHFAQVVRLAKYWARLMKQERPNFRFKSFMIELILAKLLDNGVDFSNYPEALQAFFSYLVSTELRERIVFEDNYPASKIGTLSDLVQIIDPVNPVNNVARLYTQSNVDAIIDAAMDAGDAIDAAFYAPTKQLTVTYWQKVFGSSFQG
Briefly: crystal structure, […] Å. Format: binding. The settings on record: Mg2+; active site; ATP co-purified from E. coli.

Data set [5] addresses Rhizobiales sp. Trip13 (Rhizobiales sp.). Kind of data set: crystal structure.
The target in data set [6] is E. coli MS115-1 CdnC (purified, in complexes with HORMA) (E. coli MS115-1) (UniProt D7Y2H2). Kind of data set: crystal structure.
Data set [7] has as its target T3, Ec CdnC:HORMA-ΔN (crystal) (Escherichia coli, UniProt D7Y2H2).
T3 sequence (D7Y2H2 1-321): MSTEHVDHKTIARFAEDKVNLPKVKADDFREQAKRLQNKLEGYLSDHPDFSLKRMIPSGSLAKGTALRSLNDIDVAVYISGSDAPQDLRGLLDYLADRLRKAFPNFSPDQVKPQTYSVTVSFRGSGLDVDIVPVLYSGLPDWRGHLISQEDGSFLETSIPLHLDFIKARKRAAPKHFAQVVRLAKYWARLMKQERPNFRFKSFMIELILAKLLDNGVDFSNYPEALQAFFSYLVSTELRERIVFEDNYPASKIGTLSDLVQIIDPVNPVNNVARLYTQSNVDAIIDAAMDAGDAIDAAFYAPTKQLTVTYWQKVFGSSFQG
T3 sequence (D7Y2H3 12-172 partner): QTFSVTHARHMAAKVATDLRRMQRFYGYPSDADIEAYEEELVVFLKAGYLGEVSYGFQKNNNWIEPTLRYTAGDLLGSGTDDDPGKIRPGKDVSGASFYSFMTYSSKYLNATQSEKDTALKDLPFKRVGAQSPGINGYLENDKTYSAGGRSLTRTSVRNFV
Briefly: crystal structure. Format: binding. The settings on record: active site; copies contain either no ligand or AMP; co-purified.

Data set [8] addresses T4, Pa CdnD (Pseudomonas aeruginosa ATCC27853, UniProt P0DTF7 1-300).
T4 sequence: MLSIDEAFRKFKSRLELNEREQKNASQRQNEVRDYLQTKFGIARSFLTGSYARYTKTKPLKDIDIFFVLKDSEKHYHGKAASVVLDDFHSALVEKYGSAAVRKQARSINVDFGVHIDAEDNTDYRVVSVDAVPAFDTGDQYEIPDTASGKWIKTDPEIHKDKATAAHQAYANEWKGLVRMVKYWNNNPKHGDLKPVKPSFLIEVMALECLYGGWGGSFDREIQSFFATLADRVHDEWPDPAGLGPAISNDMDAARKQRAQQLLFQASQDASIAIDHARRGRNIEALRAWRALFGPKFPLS
Briefly: filter binding.

Data set [9] concerns the molecule itself. Briefly: crystal structure.
The target of data set [10] is T5, P. aeruginosa ATCC27853 CdnD (purified) (P. aeruginosa ATCC27853, UniProt P0DTF7 1-300).
T5 sequence: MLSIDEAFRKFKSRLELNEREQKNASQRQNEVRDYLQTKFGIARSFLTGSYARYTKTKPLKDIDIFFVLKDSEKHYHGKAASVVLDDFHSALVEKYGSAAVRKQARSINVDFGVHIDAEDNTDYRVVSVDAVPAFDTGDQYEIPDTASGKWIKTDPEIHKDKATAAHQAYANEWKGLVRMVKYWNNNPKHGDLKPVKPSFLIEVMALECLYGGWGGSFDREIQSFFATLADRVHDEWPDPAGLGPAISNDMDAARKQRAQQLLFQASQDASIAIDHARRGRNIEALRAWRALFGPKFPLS
Briefly: SEC-MALS. In general terms: Size exclusion chromatography separates by hydrodynamic size, large species first.

Data set [11] concerns the target B3. Briefly: crystal structure.
Data set [12] concerns the molecule itself. Briefly: crystal structure. This is another data set of the same source.
Data set [13] addresses T6, Ec HORMA:CdnC complex (co-expressed, purified, 1:1) (E. coli MS115-1, UniProt D7Y2H2 1-321; D7Y2H3 1-172).
T6 sequence (looked up) 1: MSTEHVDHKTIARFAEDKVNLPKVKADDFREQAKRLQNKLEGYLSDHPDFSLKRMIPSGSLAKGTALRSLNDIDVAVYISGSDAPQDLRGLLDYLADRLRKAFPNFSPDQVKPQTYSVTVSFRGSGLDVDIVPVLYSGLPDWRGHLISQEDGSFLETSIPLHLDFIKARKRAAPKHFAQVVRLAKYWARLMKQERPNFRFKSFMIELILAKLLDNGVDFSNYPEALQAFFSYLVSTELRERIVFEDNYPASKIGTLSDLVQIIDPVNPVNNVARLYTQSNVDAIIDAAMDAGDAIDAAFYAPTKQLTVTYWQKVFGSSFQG
T6 sequence (looked up) 2: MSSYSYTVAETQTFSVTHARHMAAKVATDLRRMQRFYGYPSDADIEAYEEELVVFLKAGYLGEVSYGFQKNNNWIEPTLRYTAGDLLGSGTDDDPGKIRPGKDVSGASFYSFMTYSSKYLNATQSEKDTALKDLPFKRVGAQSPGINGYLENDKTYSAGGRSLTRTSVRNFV
Kind of data set: SEC-MALS.

The target of data set [14] is B4. Kind of data set: crystal structure.
Data set [15] deals with T7, E. coli MS115-1 CdnC (purified, in complexes with HORMA) (E. coli MS115-1, UniProt D7Y2H2 1-321).
T7 sequence (looked up): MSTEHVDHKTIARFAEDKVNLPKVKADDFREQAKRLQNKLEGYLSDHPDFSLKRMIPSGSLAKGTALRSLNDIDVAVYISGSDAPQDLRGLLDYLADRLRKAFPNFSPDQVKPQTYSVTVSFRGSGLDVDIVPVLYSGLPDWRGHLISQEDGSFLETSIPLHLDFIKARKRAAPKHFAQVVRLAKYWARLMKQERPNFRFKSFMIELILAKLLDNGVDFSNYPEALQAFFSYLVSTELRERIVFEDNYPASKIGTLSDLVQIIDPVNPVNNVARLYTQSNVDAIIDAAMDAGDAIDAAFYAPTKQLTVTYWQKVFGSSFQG
Briefly: SEC-MALS.

The target of data set [16] is B3. Briefly: SEC-MALS.

Values joined by “and” are separate entries in the source; they are usually repeats but may differ in a detail not shown here. Equal entries are not always repeated. Where two headings read alike, the source gives them in different places.

On to “Ec HORMA-ΔN with the His6-tag removed (from UniProt D7Y2H3 12-172) (domain or fragment)”, for which the stoichiometry N (HORMA-ΔN per CdnC) in data set [1] and in data set [2] was 1 in each case.
On to `Nc1ncnc2c1ncn2[C@@H]1O[C@H](COP(=O)(O)OP(=O)(O)OP(=O)(O)O)[C@@H](O)[C@H]1O` [ATP], for which, in [3], the “crystal structure, 2.64 Å” value is reported as “with four subunits (monomers A-D) bound to ATP”. Further, the “crystal structure, 1.44 Å” value in data set [4] is listed as “the active site is occupied by one molecule of ATP that was co-purified”.
One may read the stoichiometry N as a count of units in the complex or per binding partner. As to Rhizobiales sp. Trip13 (enzyme), the stoichiometry N in data set [5] is 6.
With “Ec HORMA-ΔN with N-terminal His6-tag (from UniProt D7Y2H3 12-172) (domain or fragment)”, the stoichiometry N (HORMA-ΔN per CdnC (2:2 complex)) in [6] stood at 1.
As to `Nc1ncnc2c1ncn2[C@@H]1O[C@H](COP(=O)(O)O)[C@@H](O)[C@H]1O` [AMP], the crystal structure result in data set [7] is “contain either no ligand or AMP in the active site”.

B1: 40 bp dsDNA (5'-FAM Oligo #1/Oligo #2) (dsDNA)
DNA 1: CCTTTCGAAGACTCATCACGGAGAGCAGACATCATCTGGC
DNA 2: GCCAGATGATGTCTGCTCTCCGTGATGAGTCTTCGAAAGG
Consider B1, for which the binding result in data set [8] is “no binding”.

B2: P. aeruginosa ATCC27853 HORMA2 (purified alone, crystallised) (natural protein, UniProt P0DTF6 1-166, looked up)
chain: MSTVATYSYTHSVTYVTDNILKSLKDIILLSGLDPEHFADRWESNTRAIKTWLGTGDLRKVILEIYNPATDKLVTRWDIDIVYGWSDGDGSFWTDTEQLKYAIKKAGLLPSQAKYKLMLDTKPGRPDVEGWSKGSYRSTDGMVKQSLGSTVEHSGLAGQAGYWRQR
Regarding B2, in [9], the binding result is recorded as “binds”.
Consider B3, for which the “stoichiometry N” value in data set [10] was 1 HORMA2 per CdnD.
As for EVMEFNP [Peptide 1 (EVMEFNP), tag cleaved], in data set [11], the binding result was “binds”.
With B4, the “stoichiometry N” value in [12] is 6; in data set [13], 6 Trip13^EQ per 1 CdnC:1 HORMA.

B5: E. coli MS115-1 HORMA with N-terminal His6-tag (purified) (natural protein, UniProt D7Y2H3 1-172, looked up)
chain: MSSYSYTVAETQTFSVTHARHMAAKVATDLRRMQRFYGYPSDADIEAYEEELVVFLKAGYLGEVSYGFQKNNNWIEPTLRYTAGDLLGSGTDDDPGKIRPGKDVSGASFYSFMTYSSKYLNATQSEKDTALKDLPFKRVGAQSPGINGYLENDKTYSAGGRSLTRTSVRNFV
On to B5, for which the binding result in [14] is “binds”. For the same molecule, the “stoichiometry N” value in data set [15] is 1 HORMA per CdnC (1:1 complex) and 1 HORMA per CdnC (2:2 complex).

B6: P. aeruginosa ATCC27853 HORMA3 (purified, in vitro reconstitution) (natural protein)
chain: MTTVVSRTFRSSPHRDALQTWDAIVELLTQGKDGTARSELRAVTGVAASLIADQAPKSAPIVATCDGPRTRIYCLFDEDAIDGDDANEEVLGFEPLKGDWGVSLPCPKEQLGWVQSALKKHSSRIIARDLSQGIATQAQADAGQALSLDLGGFLKS
Consider B6, for which the “stoichiometry N” value was determined as 1 HORMA3 per CdnD in [10] and 1 HORMA3 per HORMA2 in [16].
